The results in this text go back to PMC3033579.

One data set deals with T1, SSB (Bacillus subtilis, UniProt P37455 1-172).
T1 sequence: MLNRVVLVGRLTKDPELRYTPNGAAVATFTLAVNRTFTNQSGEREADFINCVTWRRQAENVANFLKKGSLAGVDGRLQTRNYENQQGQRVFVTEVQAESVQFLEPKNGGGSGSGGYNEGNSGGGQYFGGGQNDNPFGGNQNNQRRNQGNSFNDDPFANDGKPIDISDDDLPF
The data set is described as follows: EMSA. A general note: Mobility shift assays separate free from complexed probe on a gel.

A further data set has as its target T2, DnaD (Bacillus subtilis, UniProt P39787 1-232).
T2 sequence: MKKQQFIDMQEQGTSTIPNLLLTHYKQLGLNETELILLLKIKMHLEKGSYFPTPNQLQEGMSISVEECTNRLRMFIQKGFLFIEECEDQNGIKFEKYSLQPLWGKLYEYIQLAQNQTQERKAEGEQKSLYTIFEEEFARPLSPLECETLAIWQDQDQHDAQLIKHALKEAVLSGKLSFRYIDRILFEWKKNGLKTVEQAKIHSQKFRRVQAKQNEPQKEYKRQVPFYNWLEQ
The data set is described as follows: EMSA.

B1: 34mer oligonucleotide (ssDNA)
DNA: TTACACAGTAACTCATATGCTTCGCTATTACGCC
On to B1, for which the binding signal was 600 fold higher affinity than Cd and DnaD in the data set with SSB; 600 fold lower affinity than SSB with DnaD.
